The target of one series is T1, human GLP-1 receptor (Homo sapiens, UniProt P43220).
T1 construct: expressed in transfected cells
The series can be described thus: In vitro activity assay, CRE-Luciferase in HEK-293 cells stably expressing the human GLP-1 receptor. It is filed as cell-based. The note with it: 5 hours incubation. The procedure: “In vitro potency” as used herein, is the measure of the ability of a peptide to activate the GLP-1 receptor in a cell-based assay. In vitro potency is expressed as the “EC50” which is the effective concentration of compound that results in 50% activity in a single dose-response experiment. For the purposes of the present invention, in vitro potency is determined using a […] assay that employs HEK-293 cells that stably express the human GLP-1 receptor. These HEK-293 cells have stably integrated a DNA vector having a cAMP response element (CRE) driving expression of the luciferase gene. The interaction of a GLP-1 compound or a PEGylated GLP-1 compound with the receptor initiates a signal that results in activation of the cAMP response element and subsequent expression of luciferase. The EC50 values for the PEGylated GLP-1 compounds listed in Example 3 were determined using the luciferase assay described above. Relative in vitro potency values may be established by running Val8-GLP-1(7-37)OH or native GLP-1 as a control and assigning the control a reference value of 100%.
HEK-293 cells stably expressing the human GLP-1 receptor, using a CRE-Luciferase system, are seeded at 30,000 cells/well/80 μl low serum DMEM F12 medium into 96 well plates. […] Plates are placed in a Tri-lux luminometer and light output resulting from luciferase expression is calculated.

Series [1] in a line: Pharmacokinetic analysis after IV or SC administration to male SD rats (plasma, N-terminal specific radioimmunoassay). The class given is in vivo. As to conditions: for AUC0-last / CL/F (total body clearance as a function of bioavailability) / Cmax (maximum observed plasma concentration) / Tmax (time of maximum observed plasma concentration) / t1/2 (elimination half-life): mean. The protocol:
A PEGylated GLP-1 compound of Formula I, wherein Xaa8 is Val; Xaa22 is Glu; Xaa33 is Ile; and Xaa46 is Cys-NH2 is administered by intravenous (IV) or subcutaneous (SC) routes at a dose of 0.1 mg/kg to male SD rats. The animals (3 rats per group) are bled at various times between 0 and 192 hours after dosing. Plasma is collected from each sample and analyzed by N-terminal specific radioimmunoassay. Pharmacokinetic parameters are calculated using noncompartmental methods (WinNonlin Pro). By IV administration, the PEGylated GLP-1 analog has an elimination half-life of approximately 1.2 days while by SC administration the PEGylated GLP-1 analog has an elimination half-life of approximately 1.1 days. […] Prolonged elimination half-life, slow clearance and subcutaneous bioavailability (approximately 30%) are observed for the compound. Representative data are shown below in Table 1

The nature of series [2]: Pharmacokinetic analysis after SC administration to male cynomolgus monkeys (serum, N-terminal specific radioimmunoassay). The class given is in vivo. The note with it: 0.01 mg/kg, mean. The procedure: A PEGylated GLP-1 compound of Formula I, wherein Xaa8 is Val; Xaa22 is Glu; Xaa33 is Ile; and Xaa46 is Cys-NH2 is administered by subcutaneous (SC) route at a dose of 0.01 mg/kg to male cynomolgus monkeys. The animals are bled at various times between 0 and 168 hours after dosing. Serum is collected from each sample and analyzed by N-terminal specific radioimmunoassay. Pharmacokinetic parameters are calculated using noncompartmental methods (WinNonlin Pro). Representative data are shown below in Table 2.

For the next series, the system named is Insulin. Nature of the series: Pharmacodynamic analysis: stepped intravenous glucose infusion, insulin levels by immunoassay. It is filed as in vivo, male cynomolgus monkeys. As to conditions: for Insulin AUC, AUClast: stepped IV glucose infusion, mean. The procedure: A PEGylated GLP-1 compound of Formula I, wherein Xaa8 is Val; Xaa22 is Glu; Xaa33 is Ile; and Xaa46 is Cys-NH2 is administered by subcutaneous (SC) route at a dose of 0.01 mg/kg to male cynomolgus monkeys. A stepped intravenous glucose infusion is conducted immediately after SC administration of vehicle control (phosphate buffered saline) and 1, 5, and 7 days after SC administration of 0.01 mg/kg PEGylated GLP-1 analog. Stepped intravenous glucose infusion procedures are conducted in sedated monkeys after a 16-hour fast. Blood samples are drawn at 10 minutes prior to start of glucose infusion and immediately prior to start of glucose infusion to define baseline. A stepped infusion of glucose (20% dextrose) is then initiated at a rate of 10 mg/kg/min for 20 minutes followed by an infusion of 25 mg/kg/min for an additional 20 minutes. Blood samples are taken at 10-minute intervals throughout the infusion period. Insulin levels are determined by immunoassay. […] Representative data are shown below in Table 3.

Where no end group is shown, it is not given here. PEG = not defined here

T1 sequence (P43220 24-463): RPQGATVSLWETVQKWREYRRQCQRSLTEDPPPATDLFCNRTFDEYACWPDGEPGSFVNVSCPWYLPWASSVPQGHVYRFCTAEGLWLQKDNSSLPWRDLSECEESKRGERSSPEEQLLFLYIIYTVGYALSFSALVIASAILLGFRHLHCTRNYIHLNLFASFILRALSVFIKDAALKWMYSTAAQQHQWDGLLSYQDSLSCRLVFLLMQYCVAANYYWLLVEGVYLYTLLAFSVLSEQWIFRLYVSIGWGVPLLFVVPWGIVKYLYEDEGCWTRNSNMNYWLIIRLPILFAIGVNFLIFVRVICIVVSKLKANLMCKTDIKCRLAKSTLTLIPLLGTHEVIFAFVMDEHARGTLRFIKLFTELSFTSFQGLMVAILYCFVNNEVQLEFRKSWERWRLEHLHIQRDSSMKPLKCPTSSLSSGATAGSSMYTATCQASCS

One may read the EC50 as the concentration that produces a half-maximal response. Low readings indicate greater potency, high ones weaker potency. Consider “PEGylated GLP-1 compound of Formula I, wherein Xaa8 is Val; Xaa22 is Glu; Xaa33 is Ile; and Xaa46 is Cys: Formula I (SEQ ID NO: 1) peptide, one PEG molecule covalently attached to Cys45 and one to Cys46 (HVEGTFTSDVSSYLEEQAAKEFIAWLIKGGPSSGAPPPC(PEG)C(PEG); reading uncertain)”, for which it took 0.22 ± 0.03 nM to reach a half-maximal effect in the series with human GLP-1 receptor (EC50).
On to “PEGylated GLP-1 compound of Formula I, wherein Xaa8 is Val; Xaa22 is Glu; Xaa33 is Ile; and Xaa46 is Cys-NH2: Formula I (SEQ ID NO: 1) peptide, one PEG molecule covalently attached to Cys45 and one to Cys46-NH2 (HVEGTFTSDVSSYLEEQAAKEFIAWLIKGGPSSGAPPPC(PEG)C(PEG)-NH2; reading uncertain)”, for which the adverse clinical observations result in series [1] (IV or SC administration of 0.1 mg/kg) is “No adverse clinical observations”. Further, in series [1] (IV, 0.1 mg/kg), the elimination half-life entry is “approximately 1.2 days”, the AUC0-last was 52292 ng·h/mL, the “CL/F (total body clearance as a function of bioavailability)” value (“CL/F” below) is reported as 1.9 mL/h/kg and the “Cmax (maximum observed plasma concentration)” value was determined as 2020 ng/mL. In addition, in series [1] (IV, 0.1 mg/kg), the “Tmax (time of maximum observed plasma concentration)” value stood at 0.08 h and the “t1/2 (elimination half-life)” value is reported as 25.8 h. For the same substance, in series [1] (SC, 0.1 mg/kg), the elimination half-life entry is reported as “approximately 1.1 days”, the subcutaneous bioavailability result was “approximately 30%”, the AUC0-last was determined as 15423 ng·h/mL and the “CL/F” value is on record as 6.5 mL/h/kg. In addition, in series [1] (SC, 0.1 mg/kg), the “Cmax (maximum observed plasma concentration)” value was found to be 191 ng/mL, the “Tmax (time of maximum observed plasma concentration)” value is reported as 24.0 h and the “t1/2 (elimination half-life)” value is reported as 28.3 h. Moreover, it took 0.36 ± 0.04 nM to reach a half-maximal effect in the series with human GLP-1 receptor (EC50). For the same substance, in series [2], the AUC0-last came out at 7464.78 ng·h/mL, the “CL/F” value worked out at 1.06 mL/h/kg, the “Cmax (maximum observed serum concentration)” value is recorded as 69.49 ng/mL and the “Tmax (time of maximum observed serum concentration)” value stood at 48 h. In addition, the “t1/2 (elimination half-life estimate)” value in series [2] was 75.69 h. Besides, in the series with Insulin (Day 1 after SC 0.01 mg/kg), the “Insulin AUC, AUClast” value was 30862 pM·min. Besides, the “Insulin AUC, AUClast” value with Insulin (Day 5 after SC 0.01 mg/kg) came to 27203 pM·min. Further, the “Insulin AUC, AUClast” value in the series with Insulin (Day 7 after SC 0.01 mg/kg) turned out to be 28542 pM·min. Besides, the “duration of insulinotropic activity” value with Insulin (single SC injection of 0.01 mg/kg, relative to placebo, p<0.0001) is recorded as “at least 7 days”.

(Values after patent US8183340B2, “GLP-1 pegylated compounds” (Eli Lilly and Company, priority 2005, dated 2012).)
